Measured values published in patent US20260092097A1.

Tests used:
[1] = biological target: OVA peptide on H-2Kb (mouse); test: value cited from Alam et al. for the monovalent OT1 TCRα/β heterodimer on immobilised OVA peptide/H-2Kb; not measured in this filing; soluble, other
[2] = biological target: OVA peptide on H-2Kb (mouse); test: SPR; the murine single-chain CD8α/β domain of the complex binds the same peptide-MHC, so the value is not that of the TCR alone; single-chain; fusion: hIL-15, in complex with scCD8/hIL-15RαSu/birA (OT1scTCR/scCD8 heterodimer)
[3] = biological target: OVA peptide on H-2Kb (mouse); test: SPR, BIAcore 2000; biotinylated peptide/H2-Kb/birA on a streptavidin chip; apparent affinity of the bivalent dimer; single-chain; fusion: hIL-15 with hIL-15RαSu/birA (OT1scTCR dimer)
[4] = biological target: OVA (aa257-264) peptide/H-2Kb complex (mouse) (UniProt P01901); test: SPR (BIAcore 2000), biotinylated pMHCI on streptavidin chip
OVA (aa257-264) peptide/H-2Kb complex (mouse), sequence (P01901 22-305, one chain of several): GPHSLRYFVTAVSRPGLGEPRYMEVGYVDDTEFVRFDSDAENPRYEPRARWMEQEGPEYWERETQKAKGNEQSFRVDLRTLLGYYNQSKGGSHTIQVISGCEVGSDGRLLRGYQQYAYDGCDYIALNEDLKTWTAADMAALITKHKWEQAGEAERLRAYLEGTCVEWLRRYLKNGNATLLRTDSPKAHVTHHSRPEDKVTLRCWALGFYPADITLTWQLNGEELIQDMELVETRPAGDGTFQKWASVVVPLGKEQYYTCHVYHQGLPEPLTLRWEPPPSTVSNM

[5] = biological target: IL-15 receptor (IL-15RβγC) on 32Dβ cells (human; mouse) (UniProt P14784); test: cell-based or functional assay
IL-15 receptor (IL-15RβγC) on 32Dβ cells (human; mouse), sequence (P14784 27-551, chain 1 of 2): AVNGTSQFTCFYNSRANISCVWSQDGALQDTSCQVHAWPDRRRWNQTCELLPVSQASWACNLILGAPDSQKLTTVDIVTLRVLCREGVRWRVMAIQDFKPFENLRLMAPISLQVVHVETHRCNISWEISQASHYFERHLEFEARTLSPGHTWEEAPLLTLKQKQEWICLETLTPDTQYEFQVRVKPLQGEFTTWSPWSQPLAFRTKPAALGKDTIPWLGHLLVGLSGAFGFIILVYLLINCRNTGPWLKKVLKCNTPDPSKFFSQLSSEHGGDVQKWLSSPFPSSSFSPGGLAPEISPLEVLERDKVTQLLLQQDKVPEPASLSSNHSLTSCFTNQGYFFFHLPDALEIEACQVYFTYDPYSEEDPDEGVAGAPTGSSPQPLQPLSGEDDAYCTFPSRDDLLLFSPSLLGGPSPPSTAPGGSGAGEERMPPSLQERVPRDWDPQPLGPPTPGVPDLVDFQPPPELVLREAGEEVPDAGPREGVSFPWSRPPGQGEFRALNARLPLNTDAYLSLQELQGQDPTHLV
IL-15 receptor (IL-15RβγC) on 32Dβ cells (human; mouse), sequence (P34902 23-369, chain 2 of 2, further chain): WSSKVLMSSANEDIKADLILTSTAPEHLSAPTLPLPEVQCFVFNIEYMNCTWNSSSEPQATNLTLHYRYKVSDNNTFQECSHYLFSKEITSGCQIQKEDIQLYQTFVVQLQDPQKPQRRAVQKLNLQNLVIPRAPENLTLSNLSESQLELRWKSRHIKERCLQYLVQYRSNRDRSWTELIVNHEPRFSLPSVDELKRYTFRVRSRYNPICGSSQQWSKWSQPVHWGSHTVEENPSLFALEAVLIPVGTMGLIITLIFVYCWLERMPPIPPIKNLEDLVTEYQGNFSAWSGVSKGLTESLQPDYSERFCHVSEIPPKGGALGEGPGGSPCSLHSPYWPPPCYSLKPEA

[6] = biological target: anti-human IL-15 antibody; test: ELISA, anti-human IL-15 antibody as capture and as detection
[7] = biological target: anti-human IL-15 antibody; test: ELISA, anti-human IL-15 antibody as capture and as detection; reference of the table

OT1scTCR
Kd [1]: 6000 nM | Kd [2]: 2600 nM | Kd [3]: 30000 nM

OT1scTCR dimer: OT1scTCR/hIL-15:OT1scTCR/hIL-15RαSu/birA complex (from UniProt P40933 49-162; Q13261 31-95)
Kd [4]: 30000 nM

OT1scTCR/scCD8 heterodimer: OT1scTCR/hIL-15:scCD8/hIL-15RαSu/birA complex (from UniProt P40933 49-162; P01731 28-196; P10300 22-175; Q13261 31-95)
Kd [4]: 2600 nM | EC50 (read off the curve) (anti-murine CD8α mAb): 0.5 nM

c264scTCR dimer: c264scTCR/hIL-15:c264scTCR/hIL-15RαSu/birA complex (from UniProt P40933 49-162; Q13261 31-95)
32Dβ cell proliferation, half-maximal stimulation (EC50) [5]: 0.3 nM

c264scTCR/hIL-15 fusion protein (from UniProt P40933 49-162)
32Dβ cell proliferation, half-maximal stimulation (EC50) [5]: 0.3 nM

c264scTCR/huIL15N72D fusion protein
EC50 (read off the curve) [6]: 0.2 nM | Relative activity (%) [7]: 100%
